Data on one molecule can be found in PMC3501490, “An Investigation of Hierachical Protein Recruitment to the Inhibitory Platelet Receptor, G6B-b” (PLoS ONE, 2012).

In the experiment the target is G6B-b dual phosphopeptide pY211/pY237 (Homo sapiens), O95866. The experiment in a line: SPR. On the technique in general: Surface plasmon resonance follows binding to a sensor surface in real time, without labels.
Chain of G6B-b dual phosphopeptide pY211/pY237 (Homo sapiens), O95866 (O95866 206-241): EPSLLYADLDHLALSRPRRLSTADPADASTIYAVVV

B1: SHP-2 tandem SH2, Q06124 (protein)
chain: WFHPNITGVEAENLLLTRGVDGSFLARPSKSNPGDFTLSVRRNGAVTHIKIQNTGDYYDLYGGEKFATLAELVQYYMEHHGQLKEKNGDVIELKYPLNCADPTSERWFHGHLSGKEAEKLLTEKGKHGSFLVRESQSHPGDFVLSVRTGDDKGESNDGKSKVTHVMIRCQELKYDVGGGERFDSLTDLVEHYKKNPMVETLGTVLQLKQPL
The molecule B1 gave a Kd of 0.48 nM.

What is called Kd is a measure of binding affinity in units of concentration.
